In patent publication US5972599, “High affinity nucleic acid ligands of cytokines” (NeXstar Pharmaceuticals, Inc.):

Columns and labels:
[1] = molecular target: T1, TNF-alpha (Homo sapiens, UniProt P01375 P01375:77-233); assay: filter; class I; conditions: tags: Genzyme or R&D Systems; chain copies: 3 inferred
[2] = molecular target: T1, TNF-alpha; assay: competition; U937 cells; 3 points; conditions: tags: Genzyme or R&D Systems; chain copies: 3 inferred
Description: (§1) A receptor binding competition assay was used to determine the bioactivity of the RNA ligands. ^125I labelled hTNFα at 0.1 nM was incubated in 50 µl of binding medium (PBS with 0.5 mM Mg^++, 0.2% BSA, 0.02% sodium azide, 1 U/µl RNasin) for 15 min at 4° C. with serially diluted competitors at 10^-4 to 10^-11 M, and 1×10^4/µl U937 cells. Duplicate aliquots were subsequently removed, centrifuged through 2:1 dibutyl-phthalate:dinonyl-phthalate mixture to separate free and bound ^125I labelled hTNFα, and the radioactivity in the pellet was measured on a gamma counter. Nonspecific binding was determined by inclusion of a 200-fold molar excess of unlabeled TNF.

[3] = molecular target: T1, TNF-alpha; assay: filter; 2'F version; conditions: tags: Genzyme or R&D Systems; chain copies: 3 inferred
[4] = molecular target: T1, TNF-alpha; assay: competition; U937 cells; 2'F version; conditions: tags: Genzyme or R&D Systems; chain copies: 3 inferred
Description: as §1

[5] = molecular target: T2, IFN-gamma (Homo sapiens, UniProt P01579 P01579:24-161); assay: filter; biphasic 4.4/716 nM; conditions: tags: Genzyme (Cambridge MA); Upstate Biotechnology for early SELEX rounds; chain copies: 2 inferred
Description: (§2) The determination of equilibrium dissociation constants (Kds) for RNA pools was made subsequent to rounds 5, 8, 12, and 17 to monitor the progress of each SELEX. The Kds of RNA pools for mouse IFN-gamma (Genzyme Inc., Cambridge Mass.) were also determined after rounds 8 and 17. Kds were determined for individual ligands after cloning and sequencing of RNA pools and truncations (described below). Nitrocellulose filter binding was used to determine Kds as follows: filter discs were placed into a vacuum manifold and wetted with 5 ml of mPBS buffer. ^32P-labeled-RNA was incubated with serial dilutions of IFN-gamma in binding buffer for 5–10 min at 37° C. to allow binding to occur. […] The filter discs were dried and counted in a liquid scintillation counter (Beckmann Instruments, Palo Alto Calif.). Equilibrium dissociation constants were determined by least square fitting of the data points using the Kaleidagraph™ graphics program (Synergy Software, Reading Pa.). […] Biphasic binding constants were calculated according to standard procedures. Kds were determined by least square fitting of the data points using the Kaleidagraph™ graphics program.
(§3) The Kds of individual RNAs within each group were determined by nitrocellulose filter binding as described above. The Kds were determined using either a monophasic or biphasic least squares fit of the data.

[6] = molecular target: T1, TNF-alpha; assay: competition; U937 cells; conditions: tags: Genzyme or R&D Systems; chain copies: 3 inferred
Description: as §1

[7] = molecular target: T2, IFN-gamma; assay: filter; truncate; conditions: tags: Genzyme (Cambridge MA); Upstate Biotechnology for early SELEX rounds; chain copies: 2 inferred
[8] = molecular target: T2, IFN-gamma; assay: filter; full-length; conditions: tags: Genzyme (Cambridge MA); Upstate Biotechnology for early SELEX rounds; chain copies: 2 inferred
Description: as §2, §3

[9] = molecular target: T1, TNF-alpha; assay: filter; orphan; conditions: tags: Genzyme or R&D Systems; chain copies: 3 inferred
[10] = molecular target: T2, IFN-gamma; assay: filter; biphasic 1.8/750 nM; conditions: tags: Genzyme (Cambridge MA); Upstate Biotechnology for early SELEX rounds; chain copies: 2 inferred
Description: as §2, §3

[11] = molecular target: T2, IFN-gamma; assay: filter; biphasic 6.8/320 nM; mPBS 1 mM Mg, 0.01% HSA, 37 C; conditions: tags: Genzyme (Cambridge MA); Upstate Biotechnology for early SELEX rounds; chain copies: 2 inferred
Description: as §2, §3

[12] = molecular target: T1, TNF-alpha; assay: filter; class II; conditions: tags: Genzyme or R&D Systems; chain copies: 3 inferred
[13] = molecular target: T1, TNF-alpha; assay: filter; class II; clone 28A printed with the same sequence but no Kd; conditions: tags: Genzyme or R&D Systems; chain copies: 3 inferred
[14] = molecular target: T3, IL-4 (Homo sapiens, UniProt P05112 P05112:25-153); assay: filter; full-length; mPBS 1 mM Mg, 0.01% HSA, 37 C; conditions: tags: R&D Systems
[15] = molecular target: T3, IL-4; assay: filter; truncate; conditions: tags: R&D Systems
[16] = molecular target: T3, IL-4; assay: filter; full-length; conditions: tags: R&D Systems
[17] = molecular target: T3, IL-4; assay: competition; 0.7 nM 125I-IL-4, H-9 cells; conditions: tags: R&D Systems
Description: Following incubation, the tubes were spun (150×g, 5 min, 4° C.) and the supernatant was aspirated. The cell pellet was resuspended in 200 μl RPMI-HSA. 100 μl aliquots were centrifuged through a cushion of an equal volume of phthalate oils (dibutyl/dioctyl, 1:1 v/v). The tube was rapidly frozen in dry ice/ethanol and the tip containing the cell pellet was cut off and placed in a vial for gamma counting.

[18] = molecular target: T2, IFN-gamma; assay: filter; biphasic 3.2/314 nM; conditions: tags: Genzyme (Cambridge MA); Upstate Biotechnology for early SELEX rounds; chain copies: 2 inferred
Description: as §2, §3

[19] = molecular target: T1, TNF-alpha; assay: filter; DPBS; class I; conditions: tags: Genzyme or R&D Systems; chain copies: 3 inferred
[20] = molecular target: T1, TNF-alpha; assay: competition; 125I-hTNFa binding to U937 cells, 4 C; conditions: tags: Genzyme or R&D Systems; chain copies: 3 inferred
Description: as §1

[21] = molecular target: T2, IFN-gamma; assay: filter; biphasic 8.8/384 nM; conditions: tags: Genzyme (Cambridge MA); Upstate Biotechnology for early SELEX rounds; chain copies: 2 inferred
Description: as §2, §3

[22] = molecular target: T2, IFN-gamma; assay: filter; biphasic 9.3/232 nM; conditions: tags: Genzyme (Cambridge MA); Upstate Biotechnology for early SELEX rounds; chain copies: 2 inferred
Description: as §2, §3

T1 sequence (P01375 77-233, one chain of several): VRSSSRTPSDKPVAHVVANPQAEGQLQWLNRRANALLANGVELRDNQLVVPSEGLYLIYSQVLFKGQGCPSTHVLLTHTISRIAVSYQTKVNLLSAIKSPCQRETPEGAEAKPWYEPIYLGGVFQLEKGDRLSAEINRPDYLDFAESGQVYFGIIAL
T3 sequence (P05112 25-153, one chain of several): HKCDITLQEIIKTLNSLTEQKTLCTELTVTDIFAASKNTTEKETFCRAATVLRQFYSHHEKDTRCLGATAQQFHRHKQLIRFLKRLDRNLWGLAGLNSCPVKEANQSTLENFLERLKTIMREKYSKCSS
T2 sequence (P01579 24-161, one chain of several): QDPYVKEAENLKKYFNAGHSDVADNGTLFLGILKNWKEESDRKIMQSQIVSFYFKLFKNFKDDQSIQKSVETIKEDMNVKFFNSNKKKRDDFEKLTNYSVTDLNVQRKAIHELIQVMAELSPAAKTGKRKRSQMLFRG

B1: TNF 23A (ssRNA)
RNA: GGGAGCUCAGAAUAAACGCUCAACCUCAUCCUCGCACGCCAUCGCCUGAACCGUUCGACAUGAGGCCCGGAUCCGGC
B1 was tested, and the Kd [1] was 52 nM and the Ki [2] was about 241 nM.

B2: TNF 23A 2'F (ssRNA)
RNA: GGGAGCUCAGAAUAAACGCUCAACCUCAUCCUCGCACGCCAUCGCCUGAACCGUUCGACAUGAGGCCCGGAUCCGGC
modifications: 2'-F all C and U
B2 gave a Kd [3] of 400 nM and a Ki [4] of 14700 nM.

B3: TNF 16C (ssRNA)
RNA: GGGAGCUCAGAAUAAACGCUCAACCUGGUGGUCGUGCGGCUGUCGCCUCAAGGUUCGACAUGAGGCCCGGAUCCGGC
In the case of B3, the Kd [1] is reported as 200 nM and the Ki [2] is reported as about 313 nM.

B4: TNF 16C 2'F (ssRNA)
RNA: GGGAGCUCAGAAUAAACGCUCAACCUGGUGGUCGUGCGGCUGUCGCCUCAAGGUUCGACAUGAGGCCCGGAUCCGGC
modifications: 2'-F all C and U
In the case of B4, the Kd [3] is reported as 123 nM and the Ki [4] is reported as 9190 nM.

B5: IFN-gamma 2'F-1 truncate (ssRNA)
RNA: GGGAGGACGAUGCGGACACCGUUAAUCUGAGGCCCUGUCCUAUUCCUUCACGCCUCAGA
modifications: 2'-F all C and U
B5 showed a Kd [5] of 4.4 nM.

B6: TNF 4C (ssRNA)
RNA: GGGAGCUCAGAAUAAACGCUCAACUAGGCCCACCGUCCCUUCUAACAACGUCUUCGACAUGAGGCCCGGAUCCGGC
Binder B6 has a Kd [1] of 92 nM and a Ki [6] of 1200 nM.

Binder GGGAGGACGAUGCGGAGGGUUGGGAGGGGUCCUUCUU (ssRNA, 2'-F all C and U) [IFN-gamma 2'F-28 truncate] has a Kd [7] of 53 nM.

B7: IFN-gamma 2'F-28 (ssRNA)
RNA: GGGAGGACGAUGCGGAGGGUUGGGAGGGGUCCUUCUUUUCGUCUGCGUGGACCGUCAGACGACUCGCCCGA
modifications: 2'-F all C and U
In the case of B7, the Kd [8] is reported as 35 nM.

B8: TNF 18C (ssRNA)
RNA: GGGAGCUCAGAAUAAACGCUCAAUGUCGAGUGCGAUGGAGGAGUAGGGAUGCAUUCGACAUGAGGCCCGGAUCCGGC
B8 gave a Kd [9] of 460 nM and a Ki [6] of 2500 nM.

B9: IFN-gamma 2'NH2-17 (ssRNA)
RNA: GGGAGGACGAUGCGGUGGUAGCGCGAUAUAGCGCUGGUAGGGUUGCCGGUGAUCAGACGACUCGCCCGA
modifications: 2'-NH2 all C and U
Binder B9 has a Kd [10] of 1.8 nM.

B10: IFN-gamma 2'F-1 (ssRNA)
RNA: GGGAGGACGAUGCGGACACCGUUAAUCUGAGGCCCUGUCCUAUUCCUUCACGCCUCAGACGACUCGCCCGA
modifications: 2'-F all C and U
Work on B10 yielded a Kd [11] of 6.8 nM.

B11: TNF 14C (ssRNA)
RNA: GGGAGCUCAGAAUAAACGCUCAACGGCUUGCAGGUCGCCGAAAUGACCGCACAUUCGACAUGAGGCCCGGAUCCGGC
For B11, the Kd [12] was 60 nM and the Ki [6] was 930 nM.

B12: TNF 14C 2'F (ssRNA)
RNA: GGGAGCUCAGAAUAAACGCUCAACGGCUUGCAGGUCGCCGAAAUGACCGCACAUUCGACAUGAGGCCCGGAUCCGGC
modifications: 2'-F all C and U
Binder B12 has a Kd [3] of 133 nM and a Ki [4] of 11500 nM.

B13: TNF 8C (ssRNA)
RNA: GGGAGCUCAGAAUAAACGCUCAAGUCCACACUUUGCCGAGCGUCCUAGUGUUCGACAUGAGGCCCGGAUCCGGC
In the case of B13, the Kd [13] is reported as 430 nM.

B14: IL-4 2'F-9 (ssRNA)
RNA: GGGAGACAAGAAUAAACGCUCAAACGGCUGUAACAAACAAGGUGGGGGGCCACACAGAGCGGGUUCGACUUCGACAGGAGGCUCACAACAGGC
modifications: 2'-F all C and U
Binder B14 has a Kd [14] of 14.7 nM.

GGGAAACGGCUGUAACAAACAAGGUGGGGGGCCACACA (ssRNA, 2'-F all C and U) [IL-4 2'F-9 truncate] showed a Kd [15] of 18 nM.

B15: IFN-gamma 2'F/NH2-3 (ssRNA)
RNA: GGGAGGACGAUGCGGUUCAGAGGGUAGGUAAGUGGGAGGAAAAAUGCCGUAUCGCCUCAGACGACUCGCCCGA
modifications: 2'-F all C, 2'-NH2 all U
B15 gave a Kd [8] of 106 nM.

B16: IL-4 2'F/NH2-9 (ssRNA)
RNA: GGGAGACAAGAAUAAACGCUCAAAGAGUGCAGGUCUGGGGCGCCACAAUUACAACGGCAAUAAUUCGACAGGAGGCUCACAACAGGC
modifications: 2'-F all C, 2'-NH2 all U
Work on B16 yielded a Kd [16] of 3.3 nM and an IC50 [17] of about 40 nM.

B17: IFN-gamma 2'F-6 (ssRNA)
RNA: GGGAGGACGAUGCGGUGGAGUUUUAAUCUUACUUCCUACUCUUGCUCCACUGGGUCAGACGACUCGCCCGA
modifications: 2'-F all C and U
B17 was tested, and the Kd [18] was 3.2 nM.

B18: TNF 4A (ssRNA)
RNA: GGGAGCUCAGAAUAAACGCUCAACGCACUCGGACGGAAUCUCCGUAGGACACGUUCGACAUGAGGCCCGGAUCCGGC
B18 showed a Kd [12] of 320 nM.

Binder GGGAGGACGAUGCGGCAGGUAAUUACAUGAAGGUGGGUUAGGUA (ssRNA, 2'-NH2 all C and U) [IFN-gamma 2'NH2-30 truncate] has a Kd [7] of 11 nM.

B19: TNF 25A (ssRNA)
RNA: GGGAGCUCAGAAUAAACGCUCAAGGCCGCAUGCCCCUCCUAACAGCAUGCAACUUCGACAUGAGGCCCGGAUCCGGC
Work on B19 yielded a Kd [19] of 40 nM and a Ki [20] of 21 nM.

B20: IFN-gamma 2'F-27 (ssRNA)
RNA: GGGAGGACGAUGCGGAACACCCCCGGUCUGACGCUUGUUCCGAAUUCCUCCACCGUCAGACGACUCGCCCGA
modifications: 2'-F all C and U
B20 gave a Kd [21] of 8.8 nM.

B21: TNF 6A (ssRNA)
RNA: GGGAGCUCAGAAUAAACGCUCAACCACUGGCUAGGAACUCGAGUACUGGGUGGUUCGACAUGAGGCCCGGAUCCGGC
In the case of B21, the Kd [12] is reported as 120 nM and the Ki [6] is reported as 9100 nM.

B22: TNF 6A 2'F (ssRNA)
RNA: GGGAGCUCAGAAUAAACGCUCAACCACUGGCUAGGAACUCGAGUACUGGGUGGUUCGACAUGAGGCCCGGAUCCGGC
modifications: 2'-F all C and U
Work on B22 yielded a Kd [3] of 74 nM and a Ki [4] of 8160 nM.

B23: IFN-gamma 2'F-16 (ssRNA)
RNA: GGGAGGACGAUGCGGCAUCCCUAGAGCAGCCAGCCGGAAAGAAGUCACGCCUGCUCAGACGACUCGCCCGA
modifications: 2'-F all C and U
In the case of B23, the Kd [22] is reported as 9.3 nM.

B24: IL-4 2'NH2-29 truncate (ssRNA)
RNA: GGGACGCUCAAGAGCUGGUGAGCCACGUAUACGGCCUUAGGGGCUUGGGCG
modifications: 2'-NH2 all C and U
Work on B24 yielded a Kd [15] of 10 nM.
